The values below come from a protein production outcome set (Wang et al. 2014).

This data set is described as follows: label from the status in PepcDB records.

In the case of “MGHHHHHHSHMPSYTVTVATGSQWFAGTDDYIYLSLVGSAGCSEKHLLDKPFYNDFERGAVDSYDVTVDEELGEIQLVRIEKRKYWLNDDWYLKYITLKTPHGDYIEFPCYRWITGDVEVVLRDGRAKLARDDQIHILKQHRRKELETRQKQYRWMEWNPGFPLSIDAKCHKDLPRDIQFDSEKGVDFVLNYSKAMENLFINRFMHMFQSSWNDFADFEKIFVKISNTISERVMNHWQEDLMFGYQFLNGCNPVLIRRCTELPEKLPVTTEMVECSLERQLSLEQEVQQGNIFIVDFELLDGIDANKTDPCTLQFLAAPICLLYKNLANKIVPIAIQLNQIPGDENPIFLPSDAKYDWLLAKIWVRSSDFHVHQTITHLLRTHLVSEVFGIAMYRQLPAVHPIFKLLVAHVRFTIAINTKAREQLICECGLFDKANATGGGGHVQMVQRAMKDLTYASLCFPEAIKARGMESKEDIPYYFYRDDGLLVWEAIRTFTAEVVDIYYEGDQVVEEDPELQDFVNDVYVYGMRGRKSSGFPKSVKSREQLSEYLTVVIFTASAQHAAVNFGQ”, the protein production result was “failed”.
Next, “MGHHHHHHSHMRCQESMSAVLTAEQALKLVGEMFVYHMPFNRALGLELERYEKAFAQLAFNNQPMMVGNWAQSILHGGVIASALDVAAGLVCVGSTLTRHETISEDELRQRLSRMGTIDLRVDYLRPGRGNRFTATSSLLRAGNKVAVARVELHNEDQLYIASATATYMVG”: “failed”; “MGHHHHHHSHMSGEKTVVCKHWLRGLCKKGDQCEFLHEYDMTKMSECYFYSKFGECSNKECPFLHIDPESKI”: “not failed”.
Under “MGHHHHHHSHMSYKPNLAAHMPAAALNAAGSVHSPSTSMATSSQYRQLLSDYGPPSLGYTQGTGNSQVPQSKYAELLAIIEELGKEIRPTYAGSKSAMERLKRGIIHARGLVRECLAETERNARS” stands “failed”; under “MGHHHHHHSHMTHSDKPYKCDRCQASFRYKGNLASHKTVHTGEKPYRCNICGAQFNRPANLKTHTRIHSGEKPY”, “not failed”; under “MGHHHHHHSHSPSPSSRVTVSRASSSRSVRTTRGKRKRVDVEESEASSSVSISHSASATGNVCIEEIDVDGKFIRLKNTSEQDQPMGGWEMIRKIGDTSVSYKYTSRYVLKAGQTVTIWAANAGVTASPPTDLIWKNQNSWGTGEDVKVILKNSQGEEVAQRSTVFKTTIPEEE”, “not failed”.
Under “MGHHHHHHSHSSFQTMDQMVSNMRNYMQKLERNFGQLSVDPNGHSFCSSSVMTYSKIGDEP” stands “failed”; under “MGHLSAPLHRVRVPWQGLLLTASLLTFWNPPTTAQLTTESMPFNVAEGKEVLLLVHNLPQQLFGYSWYKGERVDGNRQIVGYAIGTQQATPGPANSGRETIYPNASLLIQNVTQNDTGFYTLQVIKSDLVNEEATGQFHVYPELPKPSISSNNSNPVEDKDAVAFTCEPETQDTTYLWWINNQSLPVSPRLQLSNGNRTLTLLSVTRNDTGPYECEIQNPVSANRSDPVTLNVTYGPDTPTISPSDTYYRPGANLSLSCYAASNPPAQYSWLINGTFQQSTQELFIPNITVNNSGSYTCHANNSVTGCNRTTVKTIIVTELSPVVAKPQIKASKTTVTGDKDSVNLTCSTNDTGISIRWFFKNQSLPSSERMKLSQGNTTLSINPVKREDAGTYWCEVFNPISKNQSDPIMLNVNYNALPQENGLSPGAIAGIVIGVVALVALIAVALACFLHFGKTGRASDQRDLTEHKPSVSNHTQDHSNDPPNKMNEVTYSTLNFEAQQPTQPTSASPSLTATEIIYSEVKKQ”, “failed”.
Take “MGIKHLNLTVADVVAAREFLEKYFGLTCSGTRGNAFAVMRDNDGFILTLMKGKEVQYPKTFHVGFPQESEEQVDKINQRLKEDGFLVEPPKHAHAYTFYVEAPGGFTIEVMC”: the protein production result was “not failed”.
For the sequence “MGILSGNPQDEPLHYGEVFSTWTYLSTNNGLINGYRSFINHTGDEDLKNLIDEAIQAMQDENHQLEELLRSNGVGLPPAPPDRPAARLDDIPVGARFNDPEISATISMDVAKGLVTCSQIIGQSIREDVALMFSQFHMAKVQFGGKMLKLNKNKGWLIPPPLHSDRPIKE”, the protein production entry is recorded as “not failed”.
Next, “MGIPEEIPPVFKTAVDVLRGASFGVADASILGYPATSMTLNQQVDNFRSMKSNWIDDFIGRSLFMIYIGTEDKLNFTKNKPNAASICHFRY”: “failed”; “MGIREDIKTVFEKDPAARSTLEVLCCYPGLHAIWMHRVAHSLWNKDLLFLARLTSHISRALTGIEIHPGAKLGKRVFIDHGSGVVIGETAEVGDDVLIYMGVVLGGTALEKKKRHPTVENNAVLGSGAIVLGPITIGRGAKVGAGSVVVRSVPPEATVVGVPARIAGTPQPSAPSEQLDHNKLPDPVLTVISQVLDRMSRLEERFQAHEKASTTPVPVSFVSSENPSVKKDEQIYSLLKDVIDPAVGIDIVNLGFVKEVTVNGTNVDVNLVLTTSACPMIEYFRNQVKRKVMGIKGIENVTVNILDEPWKWDGAGRQAFH”: “failed”.
For the sequence “MGIRRLVSVITRPIINKVNSSGQYSRVLATREDQDKASPKYMNNDKIAKKPYTYRLFSILGILSICSLLLISLLKPFNGADAPQCESIYMFPSYARIDGFDERYTPLAHKYHLYLYREQSVDREPLNGDELQLDGIPVLFIPGNAGSFRQCRSIASACSNIYFDSNTRATLRNENVRNLDFFTADFNEDFTAFHGETMLDQAEYLNDAIKYILSLYERTPDYPHPKPQSVIIVGHSMGGIVSRVMLTLKNHVPGSISTILTLSSPHAASPVTFDGDILKLYKNTNEYWRKQLSQNDSFFSKNISLVSITGGILDTTLPADYASVEDLVSLENGFTSFTTTIPDVWTPIDHLAIVWCKQLREVLARLLLESIDASKPEKVKPLNQRLQIARKLLLSGFEDYSWMNSKLNYPQENLQEFSDNFFSDYATLEMNDVLDFEMFNLEKWHNNYTKINIPSNISSTEHLHFTLLTSLDMPMIYFCTESRVNLSCITAVDSILTVPRSSKDTQFAADSSFGEAKNPFKAVSVGKNILQKYDYLMISKPTYGEFSEQEGMEDNQGFLLALLRNVSNVQIVNTTPSQILLFGEQLHLDGKDIEQVISFSNLWDSLLSYKLETKIEASNEGIASEETLFQPFIRQWVYEPFESKWHLNIINKSLDINMHNVAPFIPLNESEPRSLQLSFFIPPGMSLEAKMTINWSLTLKMLFIRYRLALASFPVAFIALVLSYQFYWYNKTSEFPSFDSTLGYILRKHGILMFFTLFLASPVVNNKLVQRILYLLDPVGLNYPFLLSERNMHANFYYLGIRDWFMSTIGILFGVMTVGLLALVSKIFGSLEILVIFLQRKLSKKNTEDKEAFDTIEHKAYGKGRLMASVLLLLLVFFHIPYQMAFVISLVIQIATCIRVALLKLSNNEQKLNLLNYNMTLLLLLLFVSAINIPIIIVFLHNVAIKWETSFRSHHNILAVAPIIFLVGNNSIFKMPNSVPLDTWDGKVTIILFVYLTVFSFIYGIRNLYWIHHLVNIICAWLLFFETIH”, the protein production result is listed as “failed”.
Under “MGISNWQPTMRAACWMSGALVSLLAMAVATRELSAHVSVFQILFFRSACGLLIIVPLVWRAGWRKVATARPGLHVLRNATHFLAQYGWVYGIAFIPMAEVFAIEFTVPVWTALLAAVLLGERLTAARLLAVALGLAGVFVIVRPGSGMIHPAALAVLLGAVAFALAYIMTKMLARTETPLCILFYMTLVQLPLGLAPALANWSSPPPHVWPWILVVGTMGLATHYCLARAMALADATVVVPLDFLRLPLIAVVGAVFYGEAIEPLLFLGAGMILAGNLYSILAERRRPAMPRAARDGSH” stands “failed”.
Turning to “MGKEYVVIGLGRFGGSIVRELNALDMDVMAIDHDENRVNEYSDIATHAVVADTTDEAVMKSLGIRNFDHVIVAIGENIQSSTLTTLILKELGVKKVTAKAQNDYHAKILNKIGADTVVHPERDMGRRIAHNVASASVLDYLELADEHSIVELKATEKMAGQSIIDLDIRAQYGINIIAIKRGKEFIISPNPNINLEIGDILIMIGHDNDLNRFEKNIATR”, the protein production entry is listed as “failed”.
For “MGKFTQRLSLRVRLTLIFLILASVTWLLSSFVAWKQTTDNVDELFDTQLMLFAKRLSTLDLNEINAADRMAQTPNRLKHGHVDDDALTFAIFTHDGRMVLNDGDNGEDIPYSYQREGFADGQLVGEDDPWRFVWMTSPDGKYRIVVGQEWEYREDMALAIVAGQLIPWLVALPIMLIIMMVLLGRE”, the protein production entry is on record as “not failed”.
Under “MGKGGDIVVGNGKKYAAPLLVLGCVVFGLGSLIVRSVPVGSYAIAFWRLLISVFVFWFLARFFRQKFPKNRKTVRYALTAGVFLAFDLALWHESIHAVGPGISTLLNSLQIFFLSAIGVFFFGERLSGLKKAGLISAVAGVAMIAGAEFGYNGNAVWGFASGLVSGLMLALSMVFVRKTHEIEPVALFPSMMILSLGGAVSLVVPALLMDGGALYPTTWKDAGLVLVYGVVMQCFAWAMVAYAIPLLSLSLTGLLLLSEPVAALFIDYFGLGKPIEGVQWAGVALTLSAIYLGSLKRQSSH” stands “failed”.
Next, “MGKMRTPQEVPARLDALAEAARKLKFDVREPVDAGAGAIGAVHSLDYLRFLREAHARWKQLPDDWGDEVVSNVFVREPNALRGVLAQAARYLADGSCPVGPHTWQSAYWAAQCAISGAQTLLDGERHAYALCRPPGHHARRDAAGGFCYLNNAAIAAQMLTQRYKRVAILDTDMHHGQGIQEIFYERSDVLYVSIHGDPENFYPVVAGFENERGAGEGYGYNVNLPMPHGSPEPVFFDRLQQAQRAIELFQPDALVLSLGFDVFEKDPQAMVAVSANGFERLGQAIGAFKLPTLIVQEGGYYIEGLEDNAERFFAGLAKALEHHHHHH”: “failed”.
Take “MGKRIAFWFEFASTYSYLSAMRIERAAADLGVTIAWEPFLLGPIFAAQGWTSSPFNLFPAKGRYMWRDMERLCARQGLPLTRPDPFPQNGLPAARLAMVAREMGHIAPFVRAVYAAQFGRGLVISDPQVLAECWAEAGLPPEAMEQAKSPEIKAALFAQGERAAALDLFGAPSFVVGEEVFWGDDRLDQALALAAQS”: the protein production entry is reported as “not failed”.
“MGKSIPVKTGLRGASAAVAGFIKSSKPIRPISSMDSSDKDSSSTTTTSETTRRFVPLSSVVSDCAKRWFKDTLEEAKAGNITMQVLLGQMYYSGYGVPKDARKVSSLFPPFQSLLFQVLGYNASDSDSESD”: the protein production entry is “failed”.
Under “MGKVYKKVELVGTSEEGLEAAIQAALARARKTLRHLDWFEVKEIRGTIGEAGVKEYQVVLEVGFRLEET” stands “not failed”; under “MGLALCGAAAQAQEKPNFLIIQCDHLTQRVVGAYGQTQGCTLPIDEVASRGVIFSNAYVGCPLSQPSRAALWSGMMPHQTNVRSNSSEPVNTRLPENVPTLGSLFSESGYEAVHFGKTHDMGSLRGFKHKEPVAKPFTDPEFPVNNDSFLDVGTCEDAVAYLSNPPKEPFICIADFQNPHNICGFIGENAGVHTDRPISGPLPELPDNFDVEDWSNIPTPVQYICCSHRRMTQAAHWNEENYRHYIAAFQHYTKMVSKQVDSVLKALYSTPAGRNTIVVIMADHGDGMASHRMVTKHISFYDEMTNVPFIFAGPGIKQQKKPVDHLLTQPTLDLLPTLCDLAGIAVPAEKAGISLAPTLRGEKQKKSHPYVVSEWHSEYEYVTTPGRMVRGPRYKYTHYLEGNGEELYDMKKDPGERKNLAKDPKYSKILAEHRALLDDYITRSKDDYRSLKVDADPRCRNHTPGYPSHEGPGAREILKRK”, “not failed”; under “MGLCVSVNRNEYVSSSTTAKIVTINGDLREYDVPVLASQVLESESTSSSSSSSSSSYFLCNSDSLYYDDFIPAIESDEILQANQIYFVLPISKRQYRLSASDMAALAVKASVAIEKAAGKKNRRRRSGRISPVVTLNQANDNRIAAVNNRIGGEATNMMMQKGKLPNRTTPFKDTNGYSRSGSVRKLKRYTSGRAKLAVRSFRLRLSTIYEGSSFN”, “failed”.
